B1: Protein BTG4 (Mus musculus), O70552 (parent)
chain: MRDEIATAVFFVTRLVKKHEKLSTQQIETFALKLMTILFEKYRGHWHPDCPSKGQAFRCIRINNNENKDPVLERACAESNVNFFHLGLPKEMTIWVDPYEVCCRYGEKKHPFTIASFKGRWENWELAQHVSCAVNRATGDCSSGTSSDEESCSREAQIIPKVNNPKSVYQVENFKQSLQPWFCLPRRKHLADGRGFLPGAACHPVPKSSKWCRPASRRVDRYHWVNAQLFSGQTAPGEPGEEALSSLKQK

Variants of: B1
Settings: with cnot7_mouse Cnot7, Q60809
cnot7_mouse Cnot7, Q60809, sequence (Q60809 whole entry): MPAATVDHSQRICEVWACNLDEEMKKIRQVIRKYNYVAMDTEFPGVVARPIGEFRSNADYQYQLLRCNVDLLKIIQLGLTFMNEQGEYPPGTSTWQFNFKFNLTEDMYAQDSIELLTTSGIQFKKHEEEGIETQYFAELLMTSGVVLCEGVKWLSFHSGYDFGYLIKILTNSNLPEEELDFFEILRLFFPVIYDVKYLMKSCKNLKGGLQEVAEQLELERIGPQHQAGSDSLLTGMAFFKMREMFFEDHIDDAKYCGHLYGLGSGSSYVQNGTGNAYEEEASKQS

| effect of a mutation on the interaction | Variant |
| --- | --- |
| disrupting interaction strength | MRDEIATAVFFVTRLVKKHEKLSTQQIETFALKLMTILFEKYRGHWHPDCPSKGQAFACIRINNNENKDPVLERACAESNVNFFHLGLPKEMTIWVDPYEVCCRYGEKKHPFTIASFKGRWENWELAQHVSCAVNRATGDCSSGTSSDEESCSREAQIIPKVNNPKSVYQVENFKQSLQPWFCLPRRKHLADGRGFLPGAACHPVPKSSKWCRPASRRVDRYHWVNAQLFSGQTAPGEPGEEALSSLKQK [R58A] |
| disrupting interaction strength | MRDEIATAVFFVTRLVKKHEKLSTQQIETFALKLMTILFEKYRGHWHPDCPSKGQAFRCIRINNNENKDPVLERACAESNVNFFHLGLPKEMTIWVDPYEVCCRYGAKKHPFTIASFKGRWENWELAQHVSCAVNRATGDCSSGTSSDEESCSREAQIIPKVNNPKSVYQVENFKQSLQPWFCLPRRKHLADGRGFLPGAACHPVPKSSKWCRPASRRVDRYHWVNAQLFSGQTAPGEPGEEALSSLKQK [E107A] |
| disrupting interaction strength | MRDEIATAVFFVTRLVKKHEKLSTQQIETFALKLMTILFEKYRGHWHPDCPSKGQAFRCIRINNNENKDPVLERACAESNVNFFHLGLPKEMTIAVDPYEVCCRYGEKKHPFTIASFKGRWENWELAQHVSCAVNRATGDCSSGTSSDEESCSREAQIIPKVNNPKSVYQVENFKQSLQPWFCLPRRKHLADGRGFLPGAACHPVPKSSKWCRPASRRVDRYHWVNAQLFSGQTAPGEPGEEALSSLKQK [W95A] |
| disrupting interaction strength | MRDEIATAVFFVTRLVKKHEKLSTQQIETFALKLMTILFEKYRGHAHPDCPSKGQAFRCIRINNNENKDPVLERACAESNVNFFHLGLPKEMTIWVDPYEVCCRYGEKKHPFTIASFKGRWENWELAQHVSCAVNRATGDCSSGTSSDEESCSREAQIIPKVNNPKSVYQVENFKQSLQPWFCLPRRKHLADGRGFLPGAACHPVPKSSKWCRPASRRVDRYHWVNAQLFSGQTAPGEPGEEALSSLKQK [W46A] |
| disrupting interaction strength | MRDEIATAVFFVTRLVKKHEKLSTQQIETFALKLMTILFEKYRGAWHPDCPSKGQAFRCIRINNNENKDPVLERACAESNVNFFHLGLPKEMTIWVDPYEVCCRYGEKKHPFTIASFKGRWENWELAQHVSCAVNRATGDCSSGTSSDEESCSREAQIIPKVNNPKSVYQVENFKQSLQPWFCLPRRKHLADGRGFLPGAACHPVPKSSKWCRPASRRVDRYHWVNAQLFSGQTAPGEPGEEALSSLKQK [H45A] |
| decreasing interaction strength | MRDEIATAVFFVTRLVKKHEKLSTQQIETFALKLMTILFEKYRGHWHPDCPSKGQAFRAIRINNNENKDPVLERACAESNVNFFHLGLPKEMTIWVDPYEVCCRYGEKKHPFTIASFKGRWENWELAQHVSCAVNRATGDCSSGTSSDEESCSREAQIIPKVNNPKSVYQVENFKQSLQPWFCLPRRKHLADGRGFLPGAACHPVPKSSKWCRPASRRVDRYHWVNAQLFSGQTAPGEPGEEALSSLKQK [C59A] |
| disrupting interaction strength | MRDEIATAVFFVTRLVKKHEKLSTQQIETFALKLMTILFEKYRGHWHPDCPSKGQAFRCIRINNNENKAPVLERACAESNVNFFHLGLPKEMTIWVDPYEVCCRYGEKKHPFTIASFKGRWENWELAQHVSCAVNRATGDCSSGTSSDEESCSREAQIIPKVNNPKSVYQVENFKQSLQPWFCLPRRKHLADGRGFLPGAACHPVPKSSKWCRPASRRVDRYHWVNAQLFSGQTAPGEPGEEALSSLKQK [D69A] |

Variants of: B1
Settings: with cnot8_mouse Cnot8, Q9D8X5
cnot8_mouse Cnot8, Q9D8X5, sequence (Q9D8X5 whole entry): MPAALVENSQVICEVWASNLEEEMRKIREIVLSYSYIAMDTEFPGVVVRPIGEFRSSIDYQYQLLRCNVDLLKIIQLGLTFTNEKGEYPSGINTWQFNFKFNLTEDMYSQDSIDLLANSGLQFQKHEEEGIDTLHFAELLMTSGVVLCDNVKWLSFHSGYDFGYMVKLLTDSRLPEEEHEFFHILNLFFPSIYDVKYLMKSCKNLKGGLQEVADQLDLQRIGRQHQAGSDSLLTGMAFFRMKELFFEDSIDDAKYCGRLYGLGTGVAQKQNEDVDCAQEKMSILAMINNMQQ

| effect of a mutation on the interaction | Variant |
| --- | --- |
| disrupting interaction strength | MRDEIATAVFFVTRLVKKHEKLSTQQIETFALKLMTILFEKYRGHWHPDCPSKGQAFRCIRINNNENKDPVLERACAESNVNFFHLGLPKEMTIAVDPYEVCCRYGEKKHPFTIASFKGRWENWELAQHVSCAVNRATGDCSSGTSSDEESCSREAQIIPKVNNPKSVYQVENFKQSLQPWFCLPRRKHLADGRGFLPGAACHPVPKSSKWCRPASRRVDRYHWVNAQLFSGQTAPGEPGEEALSSLKQK [W95A] |

Source: IntAct's records for PubMed 27065194
